These results are taken from US11053304 (CENTIVAX, dated 2021).

Assay in all cases: SPR, scFv captured via anti-V5, RBD as analyte
(In SPR one partner is held on a chip, and binding of the other changes the refractive index at the surface.)

For test [1], the target named is SARS-CoV-1 Receptor Binding Domain (RBD) protein (SARS-CoV-1, UniProt P59594 306-527).
Test [2] deals with MERS Receptor Binding Domain (RBD) protein (MERS coronavirus, UniProt K9N5Q8 367-606).
Test [3] deals with SARS-CoV-2 Receptor Binding Domain (RBD) protein (SARS-CoV-2, UniProt P0DTC2 319-541).

Positions count from the first letter of the chain named.

B1: COVID19_P07_D04 (scFv, V domains shown)
VH: EVQLVESGGGLVQPGGSLRLSCAASGFRFSDHPMHWVRQAPGKGLEWVAVITGSGRNKFYADSVKGRFTISRDNSKNTLYLQMNSLRAEDTAVYYCVTNMDNSRDYFPHYFHDMDVWGQGTLVTVSS
VL: DIVMTQSPLSLPVTPGEPASISCRSSQSLLHRNGYNYLDWYLQKPGQSPQLLIYGASTRATGVPDRFSGSGSGTDFTLKISRVEAEDVGVYYCTQSLQTPLTFGGGTKVEIKR
Regarding B1, in test [1], the binding result is on record as “no binding (tested: up to 300 nM)”. Besides, the binding result in test [2] is reported as “no binding (tested: up to 300 nM)”. Also, in test [3], the affinity, expressed as Kd, was 2.3 nM; the off-rate constant (koff) (usually the first-order rate constant of dissociation) came out at 5.7e-05 s⁻¹; the kon (in general, the rate constant with which the complex forms) came out at 24400 M⁻¹ s⁻¹.

B2: COVID19_P08_C02 (scFv, V domains shown)
VH: EVQLVESGGGLVQPGGSLRLSCAASGFTFSSYAMHWVRQAPGKGLEWVSGVSASGGGPYYADSVKGRFTISRDNSKNTLYLQMNSLRAEDTAVYYCVTNMDNSRDYFPHYFHDMDVWGQGTLVTVSS
VL: not shown
For B2, the binding result in test [1] and in test [2] was “no binding (tested: up to 300 nM)” in each case.

B3: COVID19_P08_F08 (scFv, V domains shown)
VH: B2 VH with S30T, A33G, G50A, V51I, A53G, G57T, P58T
VL: not shown
Take B3: the binding result in test [1] and in test [2] was “no binding (tested: up to 300 nM)” in each case.

B4: COVID19_P08_D11 (scFv, V domains shown)
VH: B2 VH with T28K, S30N, S31T, G50A, V51I, A53I, S54T, G57N, P58T
VL: not shown
Regarding B4, the binding result in test [1] and in test [2] was “no binding (tested: up to 300 nM)” in each case.

B5: COVID19_P20_F04 (scFv, V domains shown)
VH: B2 VH with T28A, M34L, G50A, V51I, A53G, G57D, P58T
VL: B1 VL with L38V, G55L, A56G, T58N, T61S, K79R, T94M, S96A, L97R
Consider B5, for which the binding result in test [1] and in test [2] was “no binding (tested: up to 300 nM)” in each case.

B6: COVID19_P19_H03 (scFv, V domains shown)
VH: B1 VH with R28T, D31S, H32Y, P33G, T52S, G53Y, S54D, R56S, F59Y
VL: not shown
Consider B6, for which the binding result in test [1] and in test [2] was “no binding (tested: up to 300 nM)” in each case.

B7: COVID19_P20_F05 (scFv, V domains shown)
VH: B2 VH with S31T, A53W, S54N, G56S, G57R, P58T, Y59H
VL: not shown
In the case of B7, the binding result in test [1] and in test [2] was “no binding (tested: up to 300 nM)” throughout.

B8: COVID19_P19_D02 (scFv, V domains shown)
VH: B2 VH with A33G, S49A, G50A, V51I, A53G, G57S, P58T, Y59H
VL: not shown
As for B8, the binding result in test [1] and in test [2] was “no binding (tested: up to 300 nM)” throughout.

B9: COVID19_P20_B01 (scFv, V domains shown)
VH: B1 VH with R28T, D31S, H32Y, P33A, T52S, G53S
VL: not shown
For B9, the binding result in test [1] and in test [2] was “no binding (tested: up to 300 nM)” throughout.

B10: COVID19_P07_A12 (scFv, V domains shown)
VH: EVQLVESGGGLVQPGGSLRLSCAASGFTFSNYAMHWVRQAPGKGLEWVSAIGAGGGTYYADSVKGRFTISRDNSKNTLYLQMNSLRAEDTAVYYCVTNMDNSRDYFPHYFHDMDVWGQGTLVTVSS
VL: DIVMTQSPLSLPVTPGEPASISCRSSQSLLYSDGDTYLDWYLQKPGQSPQLLIYLGSNRASGVPDRFSGSGSGTDFTLKISRVEAEDVGVYYCMQALQTPLTFGGGTKVEIKR
B10: the binding result in test [1] and in test [2] was “no binding (tested: up to 300 nM)” throughout.
